One test deals with T1, Human Tau2N4R.
T1 construct: target in SPR of the literature rows
Nature of the test: SPR; literature table, Jadhav et al. 2019; AVIDITY 'nd.'. On the technique in general: SPR reads the build-up and loss of mass on a sensor chip optically.

The target of test [1] is T2, recombinant human mis-disordered tau protein (tau151-391/4R) (human, UniProt P10636 468-708).
T2 construct: No tags are stated; also called pathological tau
Kind of test: SPR, target 'Pathological Tau151-391_4R'; literature table, Jadhav et al. 2019; AVIDITY 'nd.'.

T2 sequence (P10636 468-708): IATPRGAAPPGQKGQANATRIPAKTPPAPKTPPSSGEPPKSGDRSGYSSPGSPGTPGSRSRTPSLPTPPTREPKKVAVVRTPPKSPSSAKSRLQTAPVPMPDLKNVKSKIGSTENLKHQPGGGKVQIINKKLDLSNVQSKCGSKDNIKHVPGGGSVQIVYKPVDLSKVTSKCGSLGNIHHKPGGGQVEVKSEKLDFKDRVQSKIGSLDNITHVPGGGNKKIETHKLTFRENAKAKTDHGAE
T1 sequence (single chain, as listed by the source limits assumed): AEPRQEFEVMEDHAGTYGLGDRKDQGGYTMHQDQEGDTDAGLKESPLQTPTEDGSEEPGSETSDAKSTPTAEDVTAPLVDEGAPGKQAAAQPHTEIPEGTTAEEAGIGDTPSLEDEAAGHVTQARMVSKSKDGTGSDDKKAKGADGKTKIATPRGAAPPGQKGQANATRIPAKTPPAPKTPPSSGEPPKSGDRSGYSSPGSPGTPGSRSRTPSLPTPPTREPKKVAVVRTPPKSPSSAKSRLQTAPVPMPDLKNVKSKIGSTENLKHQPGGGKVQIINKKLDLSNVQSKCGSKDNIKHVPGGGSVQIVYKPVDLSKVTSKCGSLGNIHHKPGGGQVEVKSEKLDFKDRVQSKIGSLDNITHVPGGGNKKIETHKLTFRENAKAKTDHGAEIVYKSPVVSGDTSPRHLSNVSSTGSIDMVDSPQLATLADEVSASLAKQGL

B1: DC8E8 (antibody, V domains shown)
VH: QVQLQQSGPELVKPGTSVKMPCKASGYIFTDYVISWVKQRTGQGLEWIGEIFPRSGSTYYNEKFKGKATLTADKSSNTAYMQLSSVTSEDSAVYFCARDYYGTSFAMDYWGQGTSVTVSS
VL: DIVMSQSPSSLAVSAGEKVTMSCKSSQSLLNSRTRKNYLAWYQQKPGQSPKLLIYWASTRESGVPDRFTGSGSGTDFTLTISSVQAEDLAVYYCKQSFYLRTFGGGTKLDIK
As for B1, the Kd worked out at 91 nM with Human Tau2N4R and 14 nM in test [1].

Values taken from patent publication US20220402979A1 (AXON NEUROSCIENCE, published 2022).
